Substitutions are numbered along the chain they refer to. Where no end group is shown, it is not given here. fluorescein = fluorescein moiety attached to the N-terminus of the peptide (N-terminal fluorescein label)
Assays:
Assay in all cases: fluorescence anisotropy equilibrium binding (Kd,app), ExoI variant titrated into fluorescein-labeled peptide
ExoI Gln452Ala variant = target: T1, ExoI Gln452Ala variant (Escherichia coli, UniProt P04995 1-475)
T1 construct: helical domain residue; also called Q452A; Gln452 variant
T1 sequence: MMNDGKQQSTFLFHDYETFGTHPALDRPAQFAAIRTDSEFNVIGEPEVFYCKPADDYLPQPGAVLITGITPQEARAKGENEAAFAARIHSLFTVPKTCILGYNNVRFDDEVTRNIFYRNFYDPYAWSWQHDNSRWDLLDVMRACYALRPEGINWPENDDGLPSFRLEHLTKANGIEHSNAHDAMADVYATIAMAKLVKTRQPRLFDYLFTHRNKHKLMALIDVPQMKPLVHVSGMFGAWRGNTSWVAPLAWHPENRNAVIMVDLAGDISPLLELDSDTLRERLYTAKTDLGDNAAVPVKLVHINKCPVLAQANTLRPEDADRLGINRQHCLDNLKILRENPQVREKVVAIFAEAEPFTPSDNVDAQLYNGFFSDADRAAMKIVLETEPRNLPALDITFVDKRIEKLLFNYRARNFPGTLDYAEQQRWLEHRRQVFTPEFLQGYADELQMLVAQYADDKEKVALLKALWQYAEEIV

ExoI Glu150Ala variant = target: T2, ExoI Glu150Ala variant (Escherichia coli, UniProt P04995 1-475)
T2 construct: also called E150A; Glu150 variant
T2 sequence: T1 sequence with E150A, A452Q

ExoI Asp319Ala variant = target: T3, ExoI Asp319Ala variant (Escherichia coli, UniProt P04995 1-475)
T3 construct: also called D319A; Asp319 variant
T3 sequence: T1 sequence with D319A, A452Q

ExoI Tyr207Ala variant = target: T4, ExoI Tyr207Ala variant (Escherichia coli, UniProt P04995 1-475)
T4 construct: also called Y207A; Tyr207 variant
T4 sequence: T1 sequence with Y207A, A452Q

ExoI Glu318Ala variant = target: T5, ExoI Glu318Ala variant (Escherichia coli, UniProt P04995 1-475)
T5 construct: also called E318A; Glu318 variant
T5 sequence: T1 sequence with E318A, A452Q

Binder: fluorescein-WMDFDDDIPF (also called F-SSB-Ct; F-WT) [fluorescein-labeled SSB C-terminal peptide (fluorescein-WMDFDDDIPF)]
- Kd (ExoI Gln452Ala variant): 212 nM
- Kd (ExoI Glu150Ala variant): 72 nM
- Kd (ExoI Asp319Ala variant): 299 nM
- Kd (ExoI Tyr207Ala variant): > 1000 nM
- Kd (ExoI Glu318Ala variant): 80 nM

— US8415393B2, “Anti-bacterial drug targeting of genome maintenance interfaces” (Wisconsin Alumni Research Foundation, priority 2007, dated 2013)
